Results from PMC6265326, “Structure of the hyperosmolality-gated calcium-permeable channel OSCA1.2” (Nature Communications, 2018).

Target: the molecule itself
Assay: cryo-EM structure; single-particle cryo-EM of purified AtOSCA1.2 in 25 mM HEPES pH 7.4, 150 mM NaCl, 0.1% digitonin; 3.68 Å

B1: OSCA1.2 from Arabidopsis thaliana (AtOSCA1.2) (natural protein, UniProt Q5XEZ5 1-771, looked up)
chain: MATLQDIGVSAGINILSAFVFFIIFAVLRLQPFNDRVYFSKWYLKGLRSSPARGGAFAQRFVNLDFRSYMKFLNWMPEALKMPEPELIDHAGLDSVVYLRIYWLGLKIFTPIAVLAWAVLVPVNWTNNTLEMAKQLRNVTSSDIDKLSVSNIPEYSMRFWTHIVMAYAFTIWTCYVLMKEYETIANMRLQFVASEARRPDQFTVLVRNVPPDADESVSELVEHFFLVNHPDHYLTHQVVCNANKLADLVKKKKKLQNWLDYYQLKYARNNSQRIMVKLGFLGLWGQKVDAIEHYIAEIDKISKEISKEREEVVNDPKAIMPAAFVSFKTRWAAAVCAQTQQTRNPTQWLTEWAPEPRDVFWSNLAIPYVSLTVRRLIMHVAFFFLTFFFIVPIAFVQSLATIEGIVKAAPFLKFIVDDKFMKSVIQGFLPGIALKLFLAFLPSILMIMSKFEGFTSISSLERRAAFRYYIFNLVNVFLASVIAGAAFEQLNSFLNQSANQIPKTIGVAIPMKATFFITYIMVDGWAGVAGEILMLKPLIMFHLKNAFLVKTDKDREEAMDPGSIGFNTGEPRIQLYFLLGLVYAPVTPMLLPFILVFFALAYIVYRHQIINVYNQEYESAAAFWPDVHGRVIAALVISQLLLMGLLGTKHAALAAPFLIALPVLTIGFHHFCKGRYEPAFIRYPLQEAMMKDTLETAREPNLNLKGYLQNAYVHPVFKGDEDDYDIDDKLGKFEDEAIIVPTKRQSRRNTPAPSIISGDDSPSLPFSGKLV
notes: OSCA1.2 (alias CSC1), Arabidopsis thaliana, full length, 771 amino acids; Homodimer in the cryo-EM structure; 683 residues were modelled and the 54 carboxyl-terminal residues are missing from the model; also called CSC1; source: Sf-9 insect cells (baculovirus), purified (digitonin, Ni-NTA, Superose 6 SEC)
- stoichiometry N: 2
